The values below come from patent publication US20030235863A1.

This assay addresses FPR-GFP fusion protein (human) (UniProt P21462). The assay is described as follows: flow cytometry, LRG assembly on DCNi G beads with 30 nM FPR-GFP.

FPR-GFP fusion protein (human), sequence (P21462 other isoform, or with tags, fused parts or gaps): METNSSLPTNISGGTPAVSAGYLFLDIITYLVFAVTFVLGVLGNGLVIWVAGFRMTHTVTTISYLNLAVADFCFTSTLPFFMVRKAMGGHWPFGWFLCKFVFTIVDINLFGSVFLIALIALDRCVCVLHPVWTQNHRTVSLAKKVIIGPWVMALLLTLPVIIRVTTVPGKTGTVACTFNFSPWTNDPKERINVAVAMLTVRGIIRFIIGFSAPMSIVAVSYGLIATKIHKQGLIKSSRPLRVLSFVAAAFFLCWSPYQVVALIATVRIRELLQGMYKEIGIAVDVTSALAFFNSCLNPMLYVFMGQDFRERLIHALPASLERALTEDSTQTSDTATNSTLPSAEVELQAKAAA

Substance fML (peptide) had an EC50 of 5.3 µM.

The EC50 is the concentration at which the effect is half-maximal. Higher therefore signals weaker potency.
